Assay results: article PMC10018337
Residue numbers refer to the chain shown, from its start.

Legend:
Assay in all cases: EMSA
[1] = target: T1, CeMETT10-MTD (Caenorhabditis elegans, UniProt Q09357 1-314)
T1 sequence: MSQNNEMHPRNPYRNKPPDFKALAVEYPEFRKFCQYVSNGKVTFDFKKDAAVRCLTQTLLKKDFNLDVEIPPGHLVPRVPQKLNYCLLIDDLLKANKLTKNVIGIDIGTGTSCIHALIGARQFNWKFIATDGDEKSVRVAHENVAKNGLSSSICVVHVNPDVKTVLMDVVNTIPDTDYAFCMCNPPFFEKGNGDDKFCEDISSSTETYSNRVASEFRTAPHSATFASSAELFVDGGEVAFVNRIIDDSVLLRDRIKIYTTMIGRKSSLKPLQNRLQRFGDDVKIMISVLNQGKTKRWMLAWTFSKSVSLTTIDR

[2] = target: T2, CeMETT10-FLΔL (Caenorhabditis elegans, UniProt Q09357 1-479, del386-430)
T2 sequence: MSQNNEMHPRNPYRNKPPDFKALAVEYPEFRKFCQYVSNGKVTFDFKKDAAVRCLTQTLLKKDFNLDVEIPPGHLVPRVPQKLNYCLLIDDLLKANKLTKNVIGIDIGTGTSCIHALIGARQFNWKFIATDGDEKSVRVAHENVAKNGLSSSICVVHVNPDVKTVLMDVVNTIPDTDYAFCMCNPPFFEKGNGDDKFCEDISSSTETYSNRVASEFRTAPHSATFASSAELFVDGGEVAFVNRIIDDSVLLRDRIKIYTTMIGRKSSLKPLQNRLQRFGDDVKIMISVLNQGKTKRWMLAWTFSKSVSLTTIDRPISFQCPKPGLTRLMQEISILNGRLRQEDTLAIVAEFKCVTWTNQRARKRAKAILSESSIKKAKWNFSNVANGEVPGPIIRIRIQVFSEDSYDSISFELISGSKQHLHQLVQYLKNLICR

[3] = target: T3, CeMETT10-FLΔL_RRR/7E (Caenorhabditis elegans, UniProt Q09357 1-479, R360E;A361E;R362E;K363E;R364E;A365E;K366E;del386-430)
T3 sequence: T2 sequence with R360E, A361E, R362E, K363E, R364E, A365E, K366E

B1: sams-hp-ls (structured_RNA)
RNA: GGCAACAAUAUGUUUCUUUACCUGUUACAACGGUUACUUUGAUUACAGAAACGGUGACUAAAACGGGUAUGAUCAUGUUGUGCCC
Kd [1]: 22.3 µM | Kd [2]: 140 nM | Kd [3]: 8.3 µM
